Source: US20210221867A1, “Compounds Capable of Binding to Melanocortin 4 Receptor” (Novo Nordisk A/S, priority 2018, published 2021)
Values belong to the binder of their own block, whether it stands above or below them. Positions of bridges follow the written chain, without caps; N, C: chain ends. Non-standard residues stand in square brackets, D forms with d. Nle = CCCC[C@H](N)C(=O)O

Key:
[1] = molecular target: human MC4 receptor (human) (UniProt P32245); experiment: SPA competition binding, displacement of 125I-NDP-α-MSH, BHK membranes with human MC4R
[2] = molecular target: human MC1 receptor (human) (UniProt Q01726); experiment: SPA competition binding, displacement of 125I-NDP-α-MSH, BHK membranes with human MC1R
[3] = molecular target: human MC4 receptor (human) (UniProt P32245); experiment: cell-based or functional assay
[4] = molecular target: human MC1 receptor (human) (UniProt Q01726); experiment: cell-based or functional assay

Chain of human MC1 receptor (human) (Q01726 whole entry): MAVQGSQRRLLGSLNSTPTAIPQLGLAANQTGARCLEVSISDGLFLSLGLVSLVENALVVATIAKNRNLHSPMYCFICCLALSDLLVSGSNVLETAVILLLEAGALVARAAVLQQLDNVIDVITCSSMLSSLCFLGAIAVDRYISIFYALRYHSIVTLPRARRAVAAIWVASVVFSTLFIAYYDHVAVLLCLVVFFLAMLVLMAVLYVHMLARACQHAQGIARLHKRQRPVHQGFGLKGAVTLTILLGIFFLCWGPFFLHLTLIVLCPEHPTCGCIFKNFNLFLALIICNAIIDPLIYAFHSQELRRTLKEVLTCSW
Chain of human MC4 receptor (human) (P32245 whole entry): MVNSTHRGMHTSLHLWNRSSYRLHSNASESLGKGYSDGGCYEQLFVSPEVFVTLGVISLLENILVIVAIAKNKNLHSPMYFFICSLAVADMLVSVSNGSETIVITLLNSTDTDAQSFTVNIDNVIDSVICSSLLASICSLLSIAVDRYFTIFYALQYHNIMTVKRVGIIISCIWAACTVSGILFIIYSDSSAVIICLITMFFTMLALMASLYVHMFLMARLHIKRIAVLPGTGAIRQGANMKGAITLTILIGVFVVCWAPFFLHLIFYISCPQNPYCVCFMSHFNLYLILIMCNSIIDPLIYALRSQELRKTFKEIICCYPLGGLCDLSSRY

IC50 [1]: 0.27 nM
IC50 [2]: 138 nM
MC4R cAMP EC50 [3]: 0.16 nM
B1: Ac-c[Cys-Pro-His-D-Phe-His-Trp-Cys]-Pro-Pro-D-Arg-Glu-Nle-D-Arg-D-Arg-D-Arg-NH2 (peptide)
peptide: Ac-CPH[dF]HWCPP[dR]E[Nle][dR][dR][dR]-NH2
modifications: disulfide 1-7
SMILES: CCCC[C@H](NC(=O)[C@H](CCC(=O)O)NC(=O)[C@@H](CCCNC(=N)N)NC(=O)[C@@H]1CCCN1C(=O)[C@@H]1CCCN1C(=O)[C@@H]1CSSC[C@H](NC(C)=O)C(=O)N2CCC[C@H]2C(=O)N[C@@H](Cc2c[nH]cn2)C(=O)N[C@H](Cc2ccccc2)C(=O)N[C@@H](Cc2c[nH]cn2)C(=O)N[C@@H](Cc2c[nH]c3ccccc23)C(=O)N1)C(=O)N[C@H](CCCNC(=N)N)C(=O)N[C@H](CCCNC(=N)N)C(=O)N[C@H](CCCNC(=N)N)C(N)=O

IC50 [1]: 0.39 nM
IC50 [2]: 69 nM
MC4R cAMP EC50 [3]: 0.19 nM
MC1R cAMP EC50 [4]: 179 nM
B2: Ac-D-Arg-c[Cys-Pro-His-D-Phe-His-Trp-Cys]-Pro-Pro-D-Arg-D-Arg-NH2 (peptide)
peptide: Ac-[dR]CPH[dF]HWCPP[dR][dR]-NH2
modifications: disulfide 2-8
SMILES: CC(=O)N[C@H](CCCNC(=N)N)C(=O)N[C@H]1CSSC[C@@H](C(=O)N2CCC[C@H]2C(=O)N2CCC[C@H]2C(=O)N[C@H](CCCNC(=N)N)C(=O)N[C@H](CCCNC(=N)N)C(N)=O)NC(=O)[C@H](Cc2c[nH]c3ccccc23)NC(=O)[C@H](Cc2c[nH]cn2)NC(=O)[C@@H](Cc2ccccc2)NC(=O)[C@H](Cc2c[nH]cn2)NC(=O)[C@@H]2CCCN2C1=O

IC50 [1]: 0.35 nM
IC50 [2]: 44.1 nM
MC4R cAMP EC50 [3]: 0.32 nM
MC1R cAMP EC50 [4]: 126 nM
B3: Ac-D-Arg-c[Cys-Pro-His-D-Phe-His-Trp-Cys]-Pro-Pro-D-Arg-Glu-Nle-D-Arg-D-Arg-NH2 (peptide)
peptide: Ac-[dR]CPH[dF]HWCPP[dR]E[Nle][dR][dR]-NH2
modifications: disulfide 2-8
SMILES: CCCC[C@H](NC(=O)[C@H](CCC(=O)O)NC(=O)[C@@H](CCCNC(=N)N)NC(=O)[C@@H]1CCCN1C(=O)[C@@H]1CCCN1C(=O)[C@@H]1CSSC[C@H](NC(=O)[C@@H](CCCNC(=N)N)NC(C)=O)C(=O)N2CCC[C@H]2C(=O)N[C@@H](Cc2c[nH]cn2)C(=O)N[C@H](Cc2ccccc2)C(=O)N[C@@H](Cc2c[nH]cn2)C(=O)N[C@@H](Cc2c[nH]c3ccccc23)C(=O)N1)C(=O)N[C@H](CCCNC(=N)N)C(=O)N[C@H](CCCNC(=N)N)C(N)=O
